This series in a line: Stability of diluted alkaline phosphatase in the enzyme diluent. Format: physicochemical. The note with it: ≅100 molecules of alkaline phosphatase per ml of diluent, stored at 4° C. The source says: As is known to those skilled in the art, the stability of the enzyme is the most important factor in the detection of biological molecules. The present invention utilizes a unique diluent or buffer based upon the composition of human blood serum. The present diluent is a tris-buffer containing proteins, metal halides such as sodium chloride, potassium chloride, magnesium chloride, zinc chloride, and the like, alcohols or polyhydric alcohols and sodium azide. The pH of the buffer is between 7.5 to 8.5.

The values that follow come from patent US6767716B2, “Chemluminescent systems containing unsaturated 1,2-dioxetanes” (priority 2000, dated 2004).

Consider alkaline phosphatase, for which the “stability of enzyme in diluent” value is “stable at least for one week”.
